Laboratory results published in patent publication US20150297694A1, “CANCER DIAGNOSTIC AND THERAPEUTIC METHOD TARGETING MOLECULES EXPRESSED IN CANCER STEM CELLS” (NIIGATA UNIVERSITY, priority 2012, published 2015).

Legend:
[1] = system: CD62Llow CD4-positive or CD8-positive T cells; assay: Cytokine ELISA (IFN-γ, IL-17) of CD62Llow lymph node T cells stimulated with antigen-loaded dendritic cells; format: cell-based, mice
Description: T cells were stimulated with immobilized anti-CD3 monoclonal antibodies or antigen-pulsed BM-DCs in CM. Supernatants were harvested and assayed for IFN-γ, IL-4, and IL-17 content by a quantitative “sandwich” enzyme immunoassay using a murine IFN-γ, IL-4, and IL-17 ELISA kit (Genzyme), according to the manufacturer's protocol.
The inventors investigated whether T cells primed with synthesized DDX3X antigen could recognize CD133-positive melanoma cells.
The CD62L^low CD4-positive or CD8-positive T cells (1×10^5 cells) isolated from the lymph nodes were stimulated with 1×10^4 dendritic cells in 200 μl of complete medium (CM) for 48 hours in a 96-well plate. The dendritic cells used for stimulation were stimulated overnight with the same number of irradiated CD133-positive tumor cells or CD133-negative tumor cells (5,000 cGy), or synthesized DDX3X (5 μg/ml). The dendritic cells were purified with CD11c microbeads prior to co-culture.

[2] = system: CD3-positive T cells from peripheral blood; assay: Detection of DDX3X-responding IFN-γ-producing T cells in peripheral blood (co-culture with DDX3X-pulsed dendritic cells, ELISA); format: cell-based, human; set-up: key to DDX3X-specific T cell: “Yes” means detection of DDX3X-specific T cells in blood; “No” means no detection of DDX3X-specific T cells in blood; conditions: for DDX3X-specific T cell: DC pulsed with DDX3X 3.3 μg/ml, co-culture 24 hours, IFN-γ
Method: Peripheral blood (15 ml) was collected after informed consent. A mononulclear cell fraction was collected by density-gradient centrifugation using Lymphoprep(trade name) (Cosmo Bio), and CD14^+ cells were isolated with CD14 microbeads and autoMACS. The CD14^+ cells were cultured with rhGM-CSF (1 ng/ml, a gift from Kirin) and rhIL-4 (10 ng/ml, R&D systems), and differentiated into dendritic cells by day 5. The dendritic cells were cultured overnight in medium containing synthesized DDX3X protein (3.3 μg/ml) or the same concentration of OVA, and CD11c-positive cells purified with CD11c microbeads and autoMACS were used as antigen-presenting cells. In order to remove naive T cells and regulatory T cells from the CD14 fraction cells, CD62L^high cells were removed by using anti-CD62L antibody (1H3)-conjugated Dynabeads. The CD62L^low CD14^− cells were cultured for 48 hours on a BD BioCoat(trade name) T cell activation plate (Becton Dickinson), and cultured for 4 days in medium containing 20 U/ml of rhIL-2 (a gift from Shionogi). FACS confirmed that 95% or more of the cells were CD3-positive T cells, and the CD3-positive T cells were used as responding cells. The responding cells (1×10^5) and antigen-presenting cells (1×10^4) were co-cultured for 24 hours in a 200-μl medium in a round-bottom 96-well plate, and the IFN-γ concentration was measured by ELISA using the supernatant collected after co-culture. Unpulsed dendritic cells, DDX3X-pulsed dendritic cells, and OVA-pulsed dendritic cells were used as the antigen-presenting cells. In Table 3, “Yes” means that IFN-γ production from T cells was confirmed with significant difference only in a co-culture with the DDX3X-pulsed dendritic cells. In the table, “% Treg” and “% Teff” represent the proportions of the regulatory T cells and the effector T cells, respectively, with respect to the total number of CD4^+ T cells as determined by the FACS analysis of the mononulclear cell fraction immediately after isolation from the peripheral blood. CD62L^high CD25^+CD4^+ T cells and CD62L^low CD4^+ T cells were used as regulatory T cells (Treg) and effector T cells (Teff), respectively, in the FACS analysis, as reported in Koyama K, Kagamu H, et al. Reciprocal CD4^+ T-cell balance of effector CD62L^low CD4^+ and CD62L^high CD25^+ CD4^+ regulatory T cells in small cell lung cancer reflects disease stage. Clin Cancer Res. 2008; 14: 6770-9. Detection of DDX3X-responding T cells was not possible in any of the healthy individuals (HV), small cell lung cancer patients with distal metastasis (SCLC-ED), and cured small cell lung cancer patients. However, the experiment found the presence of DDX3X-responding, specific IFN-γ-producing T cells in 5 of 12 small cell lung cancer (SCLC-LD) patients with no distal metastasis.

[3] = T cells from lymph nodes draining DC pulsed with synthesized DDX3X, stimulated 48 hours with DC loaded with CD133-positive or CD133-negative tumor cells

B1: DEAD/H (Asp-Glu-Ala-Asp/His) box polypeptide 3, X-linked (protein, listed as Homo sapiens)
chain: MSHVAVENALGLDQQFAGLDLNSSDNQSGGSTASKGRYIPPHLRNREATKGFYDKDSSGWSSSKDKDAYSSFGSRSDSRGKSSFFSDRGSGSRGRFDDRGRSDYDGIGSRGDRSGFGKFERGGNSRWCDKSDEDDWSKPLPPSERLEQELFSGGNTGINFEKYDDIPVEATGNNCPPHIESFSDVEMGEIIMGNIELTRYTRPTPVQKHAIPIIKEKRDLMACAQTGSGKTAAFLLPILSQIYSDGPGEALRAMKENGRYGRRKQYPISLVLAPTRELAVQIYEEARKFSYRSRVRPCVVYGGADIGQQIRDLERGCHLLVATPGRLVDMMERGKIGLDFCKYLVLDEADRMLDMGFEPQIRRIVEQDTMPPKGVRHTMMFSATFPKEIQMLARDFLDEYIFLAVGRVGSTSENITQKVVWVEESDKRSFLLDLLNATGKDSLTLVFVETKKGADSLEDFLYHEGYACTSIHGDRSQRDREEALHQFRSGKSPILVATAVAARGLDISNVKHVINFDLPSDIEEYVHRIGRTGRVGNLGLATSFFNERNINITKDLLDLLVEAKQEVPSWLENMAYEHHYKGSSRGRSKSSRFSGGFGARDYRQSSGASSSSFSSSRASSSRSGGGGHGSSRGFGGGGYGGFYNSDGYGGNYNSQGVDWWGN
With B1 as the molecule, how does the “IFN-γ and IL-17 secretion by DDX3X-specific CD4-positive T cells” value [1, 3] read?
The value was “secreted IFN-γ and IL-17 in a melanoma CSC-specific manner”.

And the “response of DDX3X-specific CD8-positive T cells” value [1, 3]?
The value was “responded to both CD133-negative and CD133-positive melanoma cells”.

What about the “cytokine production by melanoma CSC-specific CD4-positive T cells” value ([1]; T cells primed with vaccinated CD133-positive melanoma cells, stimulated with DC pulsed with synthesized DDX3X (5 μg/ml)) of the same molecule?
Its value is “produced cytokines in a DDX3X-specific manner”.

What about the “cytokine production upon DDX3X stimulation compared with stimulation with the melanoma CSC itself” value ([1]; melanoma CSC-specific CD4-positive T cells) of the same molecule?
Its value is “produced even more cytokines”.

What about the “DDX3X-specific T cell” value ([2]; Cured SCLC subjects) of the same molecule?
The value was “No”.

What about the “DDX3X-specific T cell” value ([2]; HV (healthy individuals)) of the same molecule?
The value was “No”.

And the “DDX3X-specific T cell” value ([2]; SCLC-ED subjects)?
Its value is “No”.

And the “DDX3X-specific T cell” value ([2]; SCLC-LD subjects)?
Its value is “Yes and No”.

And the “detection of DDX3X-responding T cells” value ([2]; healthy individuals (HV), SCLC-ED and cured small cell lung cancer patients)?
Its value is “not possible”.

What about the “patients with DDX3X-responding, specific IFN-γ-producing T cells” value ([2]; small cell lung cancer (SCLC-LD) patients with no distal metastasis) of the same molecule?
The value was 5 of 12.
